From patent US8129345B2, “MUC1-IκB kinase complexes and their activities” (Dana-Farber Cancer Institute, Inc., priority 2006, dated 2012)
Entries after “also recorded” stand apart in the source; their conditions may differ. Blank lines part the entries; values can stand above or below the molecule they belong to.

What was measured:
IKKγ = IKKγ (Homo sapiens, UniProt Q9Y6K9); assay: In vitro GST pull-down binding to IKKγ; conditions: GST pull-down with purified proteins, immunoblot
Description: FIG. 5B is a pair of photographs of immunoblots showing an interaction between MUC1-CD and IKKγ. GST- and GST-IKKγ bound to glutathione beads were incubated with purified MUC1-CD. The precipitates were immunoblotted (IB) with anti-MUC1-C antibodies. Commassie blue staining of the gel was performed to confirm that equal amounts of GST- and GST-IKKγ were used in the experiment. The molecular weights of proteins (as indicated on the left of the photographs) are expressed as kilodaltons (kDa).
(§1) FIG. 5C is a pair of photographs of immunoblots. GST- and the indicated GST-MUC1-CD fusion proteins or fragments bound to glutathione beads were incubated with purified IKKγ. The precipitates were immunoblotted (IB) with anti-IKKγ antibody. Commassie blue staining of the gel was performed to confirm that equal amounts of GST- and GST-MUC1 proteins were used in the experiment. The molecular weights of proteins (as indicated on the left of the photographs) are expressed as kilodaltons (kDa).
FIG. 5D is a pair of photographs of immunoblots. GST and the indicated GST-IKKγ fusion proteins bound to glutathione beads were incubated with MUC1-CD. The precipitates were immunoblotted (IB) with anti-MUC1-C antibody. Commassie blue staining of the gel was performed to confirm that equal amounts of GST- and GST-IKKγ proteins were used in the experiment. The molecular weights of proteins (as indicated on the left of the photographs) are expressed as kilodaltons (kDa).
as §1, with “FIG. 11B” for “FIG. 5C”, “of an immunoblot and Coomassie blue stained gel. GST” for “of immunoblots. GST-”, “proteins (MUC1-CD and MUC1-CD(mSRM))” for “proteins or fragments”, “with” for “with purified”, “with an” for “with”, “and GST-MUC1-CD” for “and GST-MUC1”
(§2) In vitro binding assays. Purified GST-MUC1-CD (glutathione s-transferase fused to the MUC1-CD polypeptide) was cleaved with thrombin to remove the GST moiety. GST, GST-IKKβ (DiDonato et al. (1997) Nature 388:548-554), GST-IKKβ (1-458), GST-IKKβ (458-756), GST-IKKγ (Prajapati et al. (2002) J. Biol. Chem. 277:24331-24339), GST-IKKγ (1-196) or GST-IKKγ (197-419) were then incubated with the MUC1-CD for 1 hour at 25° C. In other experiments, GST, GST-MUC1-CD, GST-MUC1-CD(1-45) or GST-MUC1-CD(46-72) were incubated with purified IKKβ or IKKγ. Adsorbates to glutathione-conjugated beads were analyzed by immunoblotting.

IKKβ [1] = target: T1, IKKβ (Homo sapiens, UniProt O14920); assay: In vitro GST pull-down binding to IKKβ; conditions: GST pull-down with purified proteins, immunoblot
T1 sequence (O14920 1-756): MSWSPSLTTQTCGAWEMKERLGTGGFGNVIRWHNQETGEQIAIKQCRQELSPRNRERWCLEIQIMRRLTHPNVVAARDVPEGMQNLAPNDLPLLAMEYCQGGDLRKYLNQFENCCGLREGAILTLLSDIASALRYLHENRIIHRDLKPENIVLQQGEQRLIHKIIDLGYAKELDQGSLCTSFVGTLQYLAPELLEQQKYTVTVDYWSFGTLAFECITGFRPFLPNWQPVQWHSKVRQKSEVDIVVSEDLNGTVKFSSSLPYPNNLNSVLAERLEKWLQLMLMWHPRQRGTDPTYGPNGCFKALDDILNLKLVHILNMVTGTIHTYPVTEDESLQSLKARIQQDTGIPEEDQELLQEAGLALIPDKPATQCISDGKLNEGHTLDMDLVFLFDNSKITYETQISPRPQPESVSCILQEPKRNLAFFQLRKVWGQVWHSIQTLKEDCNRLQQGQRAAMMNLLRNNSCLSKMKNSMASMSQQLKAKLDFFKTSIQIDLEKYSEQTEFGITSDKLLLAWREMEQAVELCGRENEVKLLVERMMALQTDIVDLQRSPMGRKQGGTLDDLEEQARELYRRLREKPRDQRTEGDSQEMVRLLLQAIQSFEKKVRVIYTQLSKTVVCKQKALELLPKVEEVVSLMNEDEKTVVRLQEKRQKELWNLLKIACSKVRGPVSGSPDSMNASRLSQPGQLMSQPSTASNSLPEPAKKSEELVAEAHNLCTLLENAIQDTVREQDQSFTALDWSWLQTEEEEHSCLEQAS
Description: FIG. 4B is a pair of photographs of immunoblots. Recombinantly expressed, purified GST- and GST-IKKβ proteins bound to glutathione-agarose beads were incubated with purified MUC1-CD protein. The precipitates were immunoblotted (IB) with anti-MUC1-C antibodies. Input of the GST and GST-IKKβ proteins was assessed by Coomassie blue staining. The molecular weights of proteins (as indicated on the left of the photographs) are expressed as kilodaltons (kDa).
FIG. 4C (top panel) is a schematic diagram of the amino acid sequence of (i) the MUC1-cytoplasmic domain (MUC1-CD) [amino acids 1-72; SEQ ID NO:2]; (ii) the MUC1-CD fragment [amino acids 1-45; SEQ ID NO:3]; and (iii) the MUC-CD fragment [amino acids 46-72; SEQ ID NO:4]. FIG. 4C (bottom panel) is a photograph of an immunoblot and a photograph of a Coomassie blue-stained electrophoretic gel. GST- and the indicated GST-MUC1-CD fusion proteins bound to glutathione beads were incubated with purified IKKβ. The precipitates were immunoblotted with anti-IKKβ. Input of the GST and GST-MUC1-CD fusion proteins was assessed by Coomassie blue staining. The molecular weights of proteins (as indicated on the left of the photographs) are expressed as kilodaltons (kDa).
FIG. 11A is a pair of photographs of an immunoblot and Coomassie-blue stained gel. GST and the indicated GST-MUC1-CD fusion proteins (MUC1-CD and MUC1-CD(mSRM)) bound to glutathione beads were incubated with IKKβ. The precipitates were immunoblotted (IB) with an anti-IKKβ antibody. Commassie blue staining of the gel was performed to confirm that equal amounts of GST- and GST-MUC1-CD proteins were used in the experiment. The molecular weights of proteins (as indicated on the left of the photographs) are expressed as kilodaltons (kDa).
(§3) In vitro binding assays. Purified GST-MUC1-CD (glutathione s-transferase fused to the MUC1-CD polypeptide) was cleaved with thrombin to remove the GST moiety. […] Adsorbates to glutathione-conjugated beads were analyzed by immunoblotting.

IKKβ [2] = target: IKKβ (Homo sapiens, UniProt O14920); assay: In vitro incubation of IKKβ and IKKγ with ATP, phospho-IKKβ-Ser-181 immunoblot; format: biochemical; conditions: MUC1 protein added to the reaction
Description: (§4) FIG. 13 is a series of photographs of immunoblots. GST, and GST-IKKγ fusion proteins bound to glutathione beads were incubated with MUC1-CD, MUC1-CD(mSRM), or IKKβ proteins as indicated. The GST-pull down precipitates were immunoblotted (IB) with antibodies specific for (from top to bottom) phosphor-IKKβ-Ser-181 (first panel), IKKγ (second panel), IKKβ (third panel), or MUC1 (fourth panel) as indicated. The molecular weights of proteins (as indicated on the left of the photographs) are expressed as kilodaltons (kDa).
Target sequence in this assay (Q9Y6K9 whole entry partner, one chain of several, the tested form may be a part): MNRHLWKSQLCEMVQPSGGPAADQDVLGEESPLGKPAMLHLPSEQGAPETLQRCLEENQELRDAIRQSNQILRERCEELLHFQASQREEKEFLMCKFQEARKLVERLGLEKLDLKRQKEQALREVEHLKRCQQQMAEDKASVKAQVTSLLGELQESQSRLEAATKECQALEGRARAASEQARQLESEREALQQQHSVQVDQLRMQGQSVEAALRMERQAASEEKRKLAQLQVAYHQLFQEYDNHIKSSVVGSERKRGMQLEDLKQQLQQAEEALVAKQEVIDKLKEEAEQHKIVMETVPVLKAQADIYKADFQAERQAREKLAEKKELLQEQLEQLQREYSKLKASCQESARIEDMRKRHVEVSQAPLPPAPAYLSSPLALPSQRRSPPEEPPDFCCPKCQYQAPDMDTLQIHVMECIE

IKKβ-IKKγ complexes = IKKβ-IKKγ complexes (Homo sapiens, UniProt O14920+Q9Y6K9); assay: In vitro association of IKKβ with GST-IKKγ in absence and presence of MUC1-CD proteins; format: binding; conditions: purified IKKβ and GST-IKKγ, with or without added MUC1 protein
Description: FIG. 7C is a series of photographs of immunoblots. GST- or GST-IKKγ bound to glutathione beads was incubated with IKKβ in the absence and presence of MUC1-CD protein. The precipitates were immunoblotted (IB) with anti-IKKβ (upper panel). Input amounts of the various proteins were assessed by immunoblotting with the indicated antibodies (lower 3 panels). The molecular weights of proteins (as indicated on the left of the photographs) are expressed as kilodaltons (kDa).
as §4, with “12” for “13”, “for” for “for (from top to bottom) phosphor-IKKβ-Ser-181 (first panel),”, “(top” for “(second”, “(middle” for “(third”, “(bottom” for “(fourth”
as §3

MUC1-CD = target: T2, MUC1-CD (Homo sapiens, UniProt P15941); assay: In vitro GST pull-down of GST-IKKβ fragments with MUC1-CD; format: binding; conditions: GST-IKKβ (1-458) and GST-IKKβ (458-756) incubated with MUC1-CD
T2 construct: the MUC1-cytoplasmic domain (MUC1-CD) [amino acids 1-72; GST (N, cleaved yes); made in house
T2 sequence (P15941 1184-1255): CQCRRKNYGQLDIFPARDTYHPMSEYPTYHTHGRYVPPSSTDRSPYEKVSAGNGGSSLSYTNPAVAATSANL
Description: FIG. 4D is a pair of photographs of immunoblots. GST and the indicated GST-IKKβ fusion proteins bound to glutathione beads were incubated with MUC1-CD. The precipitates were immunoblotted with anti-MUC1-C antibody. The molecular weights of proteins (as indicated on the left of the photographs) are expressed as kilodaltons (kDa).
as §2

Sequence of IKKγ (Q9Y6K9 whole entry): as the sequence (Q9Y6K9 whole entry partner, one chain of several, the tested form may be a part) above
Sequence of IKKβ-IKKγ complexes (Q9Y6K9 whole entry, one chain of several): as the sequence (Q9Y6K9 whole entry partner, one chain of several, the tested form may be a part) above

binding to IKKγ (IKKγ): binds to IKKγ
Molecule: MUC1-CD(46-72): fragment consisting of amino acids 46-72 (SEQ ID NO:4) of the human MUC1 CD (YEKVSAGNGGSSLSYTNPAVAATSANL; listed as Homo sapiens)

extent of IKKβ phosphorylation on Ser-181 (IKKβ [2]): attenuated
interaction between IKKβ and IKKγ (IKKβ-IKKγ complexes): substantially less effective
binding to IKKγ (IKKγ): attenuated binding to IKKγ
binding to IKKβ (IKKβ [1]): no effect
Molecule: MUC1-CD(mSRM): MUC1-CD with serine-rich motif SAGNGGSSLS mutated to AAGNGGAAAA (SEQ ID NO:14) (Mutation of the Serine rich motif from human MUC1 CD)

The next lines start with the molecule.

Molecule: MUC1-CD(1-45): fragment consisting of amino acids 1-45 (SEQ ID NO:3) of the human MUC1 CD (CQCRRKNYGQLDIFPARDTYHPMSEYPTYHTHGRYVPPSSTDRSP; listed as Homo sapiens)
binding to IKKγ (IKKγ): not
binding to IKKβ (IKKβ [1]): confers the ability to bind to IKKβ; also recorded: binds to IKKβ

B1: IKKβ (1-458): fragment of amino acids 1-458 (SEQ ID NO:7) of human IKKβ (protein, listed as Homo sapiens)
chain: MSWSPSLTTQTCGAWEMKERLGTGGFGNVIRWHNQETGEQIAIKQCRQELSPRNRERWCLEIQIMRRLTHPNVVAARDVPEGMXNLAPNDLPLLAMEYCQGGDLRKYLNQFENCCGLREGAILTLLSDIASALRYLHENRIIHRDLKPENIVLQQGEQRLIHKIIDLGYAKELDQGSLCTSFVGTLQYLAPELLEQQKYTVTVDYWSFGTLAFECITGFRPFLPNWQPVQWHSKVRQKSEVDIVVSEDLNGTVKFSSSLPYPNNLNSVLAERLEKWLQLMLMWHPRQRGTDPTYGPNGCFKALDDILNLKLVHILNMVTGTIHTYPVTEDESLQSLKARIQQDTGIPEEDQELLQEAGLALIPDKPATQCISDGKLNEGHTLDMDLVFLFDNSKITYETQISPRPQPESVSCILQEPKRNLAFFQLRKVWGQVWHSIQTLKEDCNRLQQGQRAAMMNL
modifications: not fully specified; X: residue not identified in the source
binding of MUC1 to IKKβ fragments (MUC1-CD): MUC1 binds directly with the IKKβ N-terminal region
